We go through five molecules from PMC125294 (Arthritis Research, 2002).

Ends that are not written are not given here. Some results are limits rather than exact numbers.

The subject of assay [1] is polyclonal lymph node cell population. The conditions noted are these: ref [9] (also Fig. 3); cited from earlier work.
Assay [2] has as its system MMP peptide-specific T cells. As to the kind of experiment: Delayed-type hypersensitivity. The note with it: control ovalbumin peptide.
Assay [3] has as its target T1, Lewis rat MHC class II molecule, RT1.B^L (rat (Lewis), UniProt P20037 24-256; P29826 28-263).
T1 sequence (looked up) 1: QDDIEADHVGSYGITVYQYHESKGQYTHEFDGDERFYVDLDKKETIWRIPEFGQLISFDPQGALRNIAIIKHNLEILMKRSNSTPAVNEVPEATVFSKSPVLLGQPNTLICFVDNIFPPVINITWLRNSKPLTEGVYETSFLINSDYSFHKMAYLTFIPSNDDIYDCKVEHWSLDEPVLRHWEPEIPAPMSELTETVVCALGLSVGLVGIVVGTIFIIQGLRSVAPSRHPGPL
T1 sequence (looked up) 2: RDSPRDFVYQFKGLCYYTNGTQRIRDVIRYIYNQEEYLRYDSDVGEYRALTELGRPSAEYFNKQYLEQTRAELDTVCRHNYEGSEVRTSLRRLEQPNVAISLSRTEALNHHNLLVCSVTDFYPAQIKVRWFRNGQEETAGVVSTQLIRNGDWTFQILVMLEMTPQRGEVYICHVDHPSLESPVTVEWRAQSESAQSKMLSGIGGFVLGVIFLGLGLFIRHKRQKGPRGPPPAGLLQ
The assay is described as follows: competitive MHC class II-peptide binding assay.

For the molecule SNTFGLQLE [hsp65_178–186], in assay [1], the “proliferative response to mycobacterial hsp65 178–186” value is “very low”.
As for ISQAVHAAHAEINEAGR [OVA323–339], the “DTH reaction (in words), control peptide” value in assay [2] is recorded as “no DTH reaction was observed”.
Broadly, the IC50 is the concentration that gives 50% inhibition. Low values mean greater potency in that assay, high ones weaker potency in that assay. Molecule VKEGHSPPDDVDIVI-NH2 [Human MMP-16_(539-553) peptide] yielded an IC50 in assay [3] of 64 to 128 µM.
On to FLYFFSGSSQLEFDP-NH2 [Rat MMP-3_(444-458) peptide], for which the IC50 in assay [3] was not above 8 µM.
The same measure, in the same setting: the figure for SAFWPSLPSGLDAAY-NH2 [Rat MMP-10_(329-343) peptide] is 128 to 256 µM.
